According to the supplement of paper PMC9233669:
This sample holds only a part of the variants without activity.

Experiments:
biotinyl-Phe-oxazolone = test: self-aminoacylation, catalytic enhancement (BFO) (fold over background); higher = more active; k-Seq, kA / k0A0; sequences stand for … in GGGAAUGGAUCCACAUCUACGAAUUC…UUCACUGCAGACUUGACGAAGCUG
How it was run: (§1)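 Mutagenized RNA pools (0.43 μM; 21-nt variable region) were treated with 2–1250 μM of each biotinyl-aminoacyl-oxazolone. Conditions were 50 μL HEPES/NaCl/KCl/MgCl2/CaCl2 buffer, 5% acetonitrile, pH 6.9–7.0, room temperature, 90 minutes. Catalytic enhancement, the median kA relative to the uncatalyzed rate, was derived from streptavidin capture, qPCR and Illumina sequencing.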

biotinyl-Trp-oxazolone = test: self-aminoacylation, catalytic enhancement (BWO) (fold over background); higher = more active; k-Seq, kA / k0A0; sequences stand for … in GGGAAUGGAUCCACAUCUACGAAUUC…UUCACUGCAGACUUGACGAAGCUG
How it was run: as §1

biotinyl-Met-oxazolone = test: self-aminoacylation, catalytic enhancement (BMO) (fold over background); higher = more active; k-Seq, kA / k0A0; sequences stand for … in GGGAAUGGAUCCACAUCUACGAAUUC…UUCACUGCAGACUUGACGAAGCUG
How it was run: as §1

biotinyl-Ile-oxazolone = test: self-aminoacylation, catalytic enhancement (BIO) (fold over background); higher = more active; k-Seq, kA / k0A0; sequences stand for … in GGGAAUGGAUCCACAUCUACGAAUUC…UUCACUGCAGACUUGACGAAGCUG
How it was run: as §1

biotinyl-Leu-oxazolone = test: self-aminoacylation, catalytic enhancement (BLO) (fold over background); higher = more active; k-Seq, kA / k0A0; sequences stand for … in GGGAAUGGAUCCACAUCUACGAAUUC…UUCACUGCAGACUUGACGAAGCUG
How it was run: as §1

biotinyl-Val-oxazolone = test: self-aminoacylation, catalytic enhancement (BVO) (fold over background); higher = more active; k-Seq, kA / k0A0; sequences stand for … in GGGAAUGGAUCCACAUCUACGAAUUC…UUCACUGCAGACUUGACGAAGCUG
How it was run: as §1

| Sequence | self-aminoacylation (biotinyl-Phe-oxazolone) | self-aminoacylation (biotinyl-Trp-oxazolone) | self-aminoacylation (biotinyl-Met-oxazolone) | self-aminoacylation (biotinyl-Ile-oxazolone) | self-aminoacylation (biotinyl-Leu-oxazolone) | self-aminoacylation (biotinyl-Val-oxazolone) |
| --- | --- | --- | --- | --- | --- | --- |
| CCACACUUCUCGCAAUCGGUC [Fam1B.1 aminoacylation ribozyme variant] | 0.867 | 0.888 | 0.889 | 1.06 | 1.04 | 1.09 |
| CCACACUUGAAGCAAUCGCUC [Fam1B.1 aminoacylation ribozyme variant] | 0.891 | 1.31 | 1.3 | 1.36 | 1.52 | 1.59 |
| CCACACUUGAAGCAAUCGGAC [Fam1B.1 aminoacylation ribozyme variant] | 0.658 | 0.769 | 0.961 | 0.951 | 0.869 | 1.18 |
| CCACACUUGAAGCAAUCGGUG [Fam1B.1 aminoacylation ribozyme variant] | 19.1 | 3.48 | 3.04 | 2.21 | 4.29 | 2.39 |
| CCACACUUGAAGCAAUCGGUU [Fam1B.1 aminoacylation ribozyme variant] | 0.703 | 2.47 | 1.32 | 1.18 | 1.14 | 1.45 |
| CCACACUUGAAGCAAUGGGUC [Fam1B.1 aminoacylation ribozyme variant] | 1.26 | 0.833 | 0.696 | 0.99 | 0.739 | 0.811 |
| CCACACUUGCAGCAAUCGGUC [Fam1B.1 aminoacylation ribozyme variant] | 1.07 | 1.23 | 1.2 | 1.63 | 1.33 | 1.64 |
| CCACACUUUAAGCAAUCGGUG [Fam1B.1 aminoacylation ribozyme variant] | 22.9 | 3.9 | 3.89 | 2.93 | 5.4 | 2.38 |
| CCACACUUUAAGCAGUCGGUC [Fam1B.1 aminoacylation ribozyme variant] | 1.16 | 0.623 | 0.755 | 0.858 | 0.926 | 0.946 |
| CCACACUUUAAGCCAUCGGUC [Fam1B.1 aminoacylation ribozyme variant] | 0.541 | 0.783 | 0.743 | 0.964 | 0.755 | 0.879 |
| CCACACUUUAGGCAAUCGGUC [Fam1B.1 aminoacylation ribozyme variant] | 0.648 | 0.713 | 0.96 | 1.12 | 0.831 | 1.01 |
| CCACACUUUUAGCAAUCGGUC [Fam1B.1 aminoacylation ribozyme variant] | 0.974 | 0.678 | 0.767 | 0.874 | 0.845 | 0.942 |
| CCACAGCUCAAGCAAUCGGUC [Fam1B.1 aminoacylation ribozyme variant] | 3.21 | 2.35 | 1.05 | 1.18 | 1.16 | 1.29 |
| CCACAGUUAAAGCAAUCGGUC [Fam1B.1 aminoacylation ribozyme variant] | 0.915 | 0.869 | 0.836 | 0.832 | 0.963 | 0.98 |
| CCACAGUUCAAGCAAUCGGCC [Fam1B.1 aminoacylation ribozyme variant] | 0.924 | 3.18 | 2.66 | 2.11 | 2.6 | 3.95 |
| CCACAGUUCAAGCAUUCGGUC [Fam1B.1 aminoacylation ribozyme variant] | 1.61 | 1.86 | 1.84 | 1.88 | 2.04 | 2.33 |
| CCACAGUUUAAGCAAUCGGUC [Fam1B.1 aminoacylation ribozyme variant] | 0.825 | 0.708 | 0.857 | 0.82 | 0.786 | 0.758 |
| CCACAUGUCAAGCAAUCGGUC [Fam1B.1 aminoacylation ribozyme variant] | 1.08 | 0.915 | 1.13 | 1.22 | 1.27 | 1.33 |
| CCACAUUUCAAGCAGUCGGUC [Fam1B.1 aminoacylation ribozyme variant] | 0.868 | 0.803 | 0.9 | 1.15 | 0.899 | 1.15 |
| CCACAUUUCAAUCAAUCGGUC [Fam1B.1 aminoacylation ribozyme variant] | 12.7 | 6.51 | 1.09 | 1.14 | 1.07 | 1.14 |
| CCACCAUUCAAGCAAUCGGUC [Fam1B.1 aminoacylation ribozyme variant] | 1.89 | 1.4 | 0.934 | 1.16 | 0.958 | 1.3 |
| CCACCCAUCAAGCAAUCGGUC [Fam1B.1 aminoacylation ribozyme variant] | 0.916 | 0.951 | 0.85 | 1.06 | 0.876 | 1.07 |
| CCACCCUUCAAGCAAUCGGUG [Fam1B.1 aminoacylation ribozyme variant] | 63.7 | 6.85 | 7.37 | 4.86 | 10.2 | 4.61 |
| CCACCCUUCAAGCAAUCGGUU [Fam1B.1 aminoacylation ribozyme variant] | 2.79 | 4.11 | 1.42 | 1.47 | 1.91 | 1.67 |
| CCACCCUUCAAGCAAUUGGUC [Fam1B.1 aminoacylation ribozyme variant] | 1.33 | 1.04 | 0.907 | 0.814 | 0.814 | 0.984 |
| CCACCCUUCCAGCAAUCGGUC [Fam1B.1 aminoacylation ribozyme variant] | 1.15 | 1.51 | 1.02 | 1.41 | 1.04 | 1.94 |

| Sequence | self-aminoacylation (biotinyl-Phe-oxazolone) | self-aminoacylation (biotinyl-Trp-oxazolone) | self-aminoacylation (biotinyl-Met-oxazolone) | self-aminoacylation (biotinyl-Ile-oxazolone) | self-aminoacylation (biotinyl-Leu-oxazolone) | self-aminoacylation (biotinyl-Val-oxazolone) |
| --- | --- | --- | --- | --- | --- | --- |
| CCACGCUUCAAGCAAUCGCUC [Fam1B.1 aminoacylation ribozyme variant] | 0.605 | 1.13 | 0.927 | 0.955 | 0.929 | 1.42 |
| CCACGCUUCAAGCAAUCGGGC [Fam1B.1 aminoacylation ribozyme variant] | 1.35 | 1.41 | 1.25 | 1.08 | 0.924 | 2.04 |
| CCACGCUUCAAGCAAUCGGUA [Fam1B.1 aminoacylation ribozyme variant] | 1.37 | 1.13 | 0.873 | 0.724 | 0.943 | 1.14 |
| CCACGCUUCAAGCAUUCGGUC [Fam1B.1 aminoacylation ribozyme variant] | 0.774 | 1.31 | 1.06 | 1.24 | 1.11 | 1.93 |
| CCACGCUUCAAGGAAUCGGUC [Fam1B.1 aminoacylation ribozyme variant] | 11.6 | 11 | 1.22 | 1.11 | 1.19 | 1.1 |
| CCACGCUUCAAUCAAUCGGUC [Fam1B.1 aminoacylation ribozyme variant] | 30.8 | 20 | 0.865 | 1.01 | 1.34 | 1.18 |
| CCACGCUUCACGCAAUCGGUC [Fam1B.1 aminoacylation ribozyme variant] | 0.964 | 1.95 | 1.4 | 1.15 | 1.09 | 1.82 |
| CCACGCUUCCAGCAAUCGGUC [Fam1B.1 aminoacylation ribozyme variant] | 0.836 | 1.12 | 0.936 | 1.11 | 1.05 | 1.11 |
| CCACGCUUGAAGCAAUCGGUC [Fam1B.1 aminoacylation ribozyme variant] | 0.547 | 1.01 | 0.861 | 0.895 | 0.714 | 1.28 |
| CCACUCAUCAAGCAAUCGGUC [Fam1B.1 aminoacylation ribozyme variant] | 0.817 | 0.731 | 0.73 | 0.977 | 0.997 | 0.971 |
| CCACUCUUCAAGCAAUCGUUC [Fam1B.1 aminoacylation ribozyme variant] | 1.06 | 0.68 | 0.915 | 0.87 | 0.724 | 0.857 |
| CCACUUCAAACAAUCGGUCUG [Fam1A.1 aminoacylation ribozyme variant] | 114 | 49.3 | 1.76 | 1.51 | 2.75 | 1.63 |
| CCACUUCAAACAAUCUGUCUG [Fam1A.1 aminoacylation ribozyme variant] | 2.99 | 1.78 | 0.511 | 0.723 | 0.642 | 0.641 |
| CCACUUCAAACAGUCGGUCUG [Fam1A.1 aminoacylation ribozyme variant] | 0.637 | 1.54 | 1.09 | 1.19 | 0.89 | 1.39 |
| CCACUUCAAGCAAUCGGUCUG [Fam1A.1 aminoacylation ribozyme variant] | 18.6 | 11.8 | 1.15 | 1.23 | 1.22 | 1.28 |
| CCACUUGAAACAAUCGGUCUG [Fam1A.1 aminoacylation ribozyme variant] | 0.824 | 0.785 | 1.19 | 1.15 | 1.03 | 1.18 |
| CCAGACUACAAGCAAUCGGUC [Fam1B.1 aminoacylation ribozyme variant] | 1.07 | 1.35 | 1.16 | 1.26 | 1.17 | 1.42 |
| CCAGACUUCAAGCAAGCGGUC [Fam1B.1 aminoacylation ribozyme variant] | 0.523 | 0.843 | 0.821 | 0.87 | 1.15 | 0.932 |
| CCAGACUUCAAGCAAUCGCUC [Fam1B.1 aminoacylation ribozyme variant] | 5.36 | 1.54 | 2.06 | 2.23 | 2.71 | 2.11 |
| CCAGACUUCAAGCAAUGGGUC [Fam1B.1 aminoacylation ribozyme variant] | 0.887 | 0.74 | 0.72 | 0.856 | 0.759 | 0.856 |
| CCAGACUUCAAGCUAUCGGUC [Fam1B.1 aminoacylation ribozyme variant] | 1.11 | 0.76 | 1.08 | 1.41 | 1.16 | 1.41 |
| CCAGACUUCACGCAAUCGGUC [Fam1B.1 aminoacylation ribozyme variant] | 4.39 | 1.65 | 1.79 | 1.64 | 1.6 | 1.76 |
| CCAGACUUGAAGCAAUCGGUC [Fam1B.1 aminoacylation ribozyme variant] | 0.942 | 1.07 | 1.08 | 1.07 | 1.16 | 1.12 |
| CCAUACGUCAAGCAAUCGGUC [Fam1B.1 aminoacylation ribozyme variant] | 0.88 | 1.16 | 1.03 | 1.04 | 1.34 | 1.12 |
| CCAUACUUCAAGCAACCGGUC [Fam1B.1 aminoacylation ribozyme variant] | 1.06 | 0.794 | 0.74 | 1.06 | 0.894 | 1 |
